The results in this text go back to patent US20050032221A1, “Dominant negative variants of methionine aminopeptidase 2 (MetAP2) and clinical uses thereof” (priority 2001, published 2005).

In one data set the test system is yeast map1Δ strain. The experiment in a line: Yeast growth assay, map1Δ, expression under GAL1 promoter. In kind it is cell-based, yeast (S. cerevisiae). Particulars: galactose plates, 4 days at 30° C. As to the method: A haploid yeast map1Δ strain was transformed to leucine prototrophy with p425GAL1/MAP2 wild-type (WT), p425GAL1/map2 (H174A), or p425GAL1 vector alone (V). Each strain was grown to mid-logarithmic phase at 30° C. in minimal synthetic raffinose medium lacking leucine. Approximately 2×10^5 cells (ABS600) were then streaked onto minimal synthetic plates lacking leucine and supplemented with (A) glucose or (B) galactose. Plates were incubated for 4 days at 30° C.
A haploid yeast map1Δ strain was transformed to leucine prototrophy with p425GAL1/MAP2 wild-type (WT), p425GAL1/map2 ([…]), p425GAL1/map2 (Δ2-57/H174A) or p425GAL1 vector alone (V). Each strain was grown to mid-logarithmic phase at 30° C. in minimal synthetic raffinose medium lacking leucine. […]
For relative growth comparison, strains were grown to mid-logarithmic phase in 5 ml of 2% raffinose minimal media lacking leucine and ˜2×10^5 cells (ABS600) were streaked onto SD/Leu^− or SG/Leu^− plates, then incubated for 4 days at 30° C. For quantitative comparison, a growth curve was obtained (FIG. 4). […] The ABS600 of each 1 mL culture was measured and diluted to an ABS600 of 0.2 in 5 mL of SG/Leu^−. Each 5 mL culture was then grown aerobically at 30° C. and the ABS600 was measured in triplicate at one-hour intervals.

The next data set deals with peptide substrate (MGMM). The experiment in a line: MetAP activity assay of immunopurified HA-tagged yeast MetAP2 with Met-Gly-Met-Met. Particulars: immunopurified HA-tagged enzyme from map1Δ; 2 mM Met-Gly-Met-Met. In kind it is biochemical. Here is the method: […]. Approximately 2 μg of purified wild-type MetAP2 (WT) and MetAP2 (H174A) was separated on a 10% SDS-PAGE gel and visualized with coomassie blue staining. Specific activity for the wild-type MetAP2 was 11±0.5 U/mg.
The purification of HA-tagged wild-type and mutant yeast MetAP2 from a yeast map1Δ strain (Klinkenberg et al., Arch. Biochem. Biophys. 347:193-200, 1997) was performed as previously described (Li and Chang, 1995) with slight modifications. A 1-liter yeast culture was grown aerobically at 30° C. in SG/Leu^− medium. Cells were collected at an OD600˜1-2 by centrifugation at 1500×g for 5 min. The pellet was rinsed with buffer XL (10 mM Hepes, pH 7.4; 1.5 mM MgCl2, 10% Glycerol [v/v]) plus 100 mM NaCl and fresh protease inhibitors (1 μg/ml aprotinin, 1 μg/ml leupeptin, 0.7 μg/ml pepstatin A, 1 mM phenylmethylsulfonyl fluoride). Cells were disrupted by vortexing (5 cycles of 1 min vortexing, 1 min on ice) with 0.5-mm acid-washed glass beads (Biospec Products, Inc.,). The lysate was then cleared at 10,000×g for 20 min at 4° C. Cleared lysate was applied to a Protein-Sepharose G column (Pharmacia) previously rinsed and pre-equilibrated with buffer XL and an anti-hemagglutinin epitope ([…]; SEQ ID NO:23) monoclonal antibody (BabCO). After loading, the column was washed with buffer XL until OD280<0.01. […]

B1: wild-type MetAP2: wild-type yeast MetAP2 with N-terminal hemagglutinin tag (SEQ ID NO:14) (protein, listed as Saccharomyces sp.)
chain: MTDAEIENSPASDLKELNLENEGVEQQDQAKADESDPVESKKKKNKKKKKKKSNVKKIELLFPDGKYPEGAWMDYHQDFNLQRTTDEESRYLKRDLERAEHWNDVRKGAEIHRRVRRAIKDRIVPGMKLMDIADMIENTTRKYTGAENLLAMEDPKSQGIGFPTGLSLNHCAAHFTPNAGDKTVLKYEDVMKVDYGVQVNGNIIDSAFTVSFDPQYDNLLAAVKDATYTGIKEAGIDVRLTDIGEAIQEVMESYEVEINGETYQVKPCRNLCGHSIAPYRIHGGKSVPIVKNGDTTKMEEGEHFAIETFGSTGRGYVTAGGEVSHYARSAEDHQVMPTLDSAKNLLKTIDRNFGTLPFCRRYLDRLGQEKYLFALNNLVRHGLVQDYPPLNDIPGSYTAQFEHTILLHAHKKEVVSKGDDYGKMRFQMASSLGIILL
modifications: N-terminal HA tag; Yeast MetAP2
With B1, in the data set on yeast map1Δ strain, the “colony size / growth relative to map1Δ with vector alone” value is listed as “largest observed”. This molecule also gave a Specific activity in the data set with peptide substrate (MGMM) of 11±0.5 U/mg.
